One block for each compound: values may come before it.
What was measured:
Alr4641 (2-Cys-Prx) = target: T1, Alr4641 (2-Cys-Prx) (Nostoc sp. PCC 7120 = FACHB-418, UniProt A0ACD7RYC4); test: NTRC-dependent peroxidase assay, NADPH oxidation at […] nm; assay type: biochemical; settings: 100 uM peroxide; NTRC of Anabaena PCC7120 as reductant with NADPH
T1 construct: full length, 203 residues, 23 kD, N-terminal His-tag (pET16b), expressed in E. coli BL21pLysS; decamer/dodecamer
T1 sequence (A0ACD7RYC4 1-203): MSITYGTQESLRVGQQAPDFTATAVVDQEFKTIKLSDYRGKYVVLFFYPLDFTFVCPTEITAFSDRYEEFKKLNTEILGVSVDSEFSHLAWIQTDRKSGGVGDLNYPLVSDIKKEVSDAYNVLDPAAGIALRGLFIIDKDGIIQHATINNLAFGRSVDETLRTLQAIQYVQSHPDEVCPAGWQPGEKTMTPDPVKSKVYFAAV

[1] = target: Alr4641 (typical 2-Cys-Prx of Anabaena PCC7120), His-tagged, wild type (Anabaena PCC7120); test: SDS-PAGE under reducing or non-reducing conditions; 12% SDS-PAGE of purified proteins with or without DTT (10 mM); shows the inter-subunit disulfide dimer
[2] = target: Alr4641 over-expressed in Anabaena PCC7120 (strain An4641+) (Anabaena PCC7120); test: non-reducing SDS-PAGE with Western blot; cell free extracts of Anabaena (wild type after MV, H2O2, t-Bx or γ-radiation and recovery; An4641+; AnC56S+) on non-reducing SDS-PAGE, probed with Alr4641 antiserum; shows the disulfide dimer
[3] = target: Alr4641, endogenous in wild-type Anabaena PCC7120 (Anabaena PCC7120 (endogenous)); test: as above
[4] = target: Alr4641 (typical 2-Cys-Prx of Anabaena PCC7120), His-tagged, wild type (Anabaena PCC7120); test: SPR; Autolab Esprit; about 250 response units of Alr4641 immobilised on bare gold chip by EDC-NHS; NTRC injected at 4.33, 8.66, 10.39 and 12.99 μM, 33.3 μL/min, 300 s; 20°C; 10 mM HEPES, 100 mM NaCl, pH 7.5; equilibrium analysis

Compound: CC(C)(OO)c1ccccc1 [Cux, cumeme hydroperoxide]
NTRC-dependent peroxidase assay, NADPH oxidation at 340 nm (Alr4641 (2-Cys-Prx)): best activity was observed with H2O2 followed by t-butyl hydroperoxide and cumeme hydroperoxide

Compound: CC(C)(C)OO [t-Bx, t-butyl hydroperoxide]
NTRC-dependent peroxidase assay, NADPH oxidation at 340 nm (Alr4641 (2-Cys-Prx)): best activity was observed with H2O2 followed by t-butyl hydroperoxide and cumeme hydroperoxide

Compound: Alr4641, endogenous in wild-type Anabaena PCC7120 (enzyme)
stoichiometry N [3]: 2

The next lines start with the values.

stoichiometry N [1]: 2
Compound: Alr4641 (typical 2-Cys-Prx of Anabaena PCC7120), His-tagged, wild type (enzyme)

stoichiometry N [2]: 2
Compound: Alr4641 over-expressed in Anabaena PCC7120 (strain An4641+) (enzyme)

Kd [4]: 1.04 µM
Compound: NADPH-dependent thioredoxin reductase (NTRC) from Anabaena PCC7120, His-tagged (enzyme)

Reference: paper PMC4349727, “Redox-dependent chaperone/peroxidase function of 2-Cys-Prx from the cyanobacterium Anabaena PCC7120: role in oxidative stress tolerance” (BMC Plant Biology, 2015)
